Laboratory results published in the RNAGym collection of RNA variant scans (doi:10.1073/pnas.2313332121).
Fewer inactive variants are shown than the library holds.

B1: TPR 5TU (parent)
chain: GGAUCUUCUCGAUCUAACAAAAAAGACAAAUCUGCCACAAAGCUUGAGAGCAUCUUCGGAUGCAGAGGCGGCAGCCUUCGGUGGCGCGAUAGCGCCAACGUUCUCAACUAUGACACGCAAAACGCGUGCUCCGUUGAAUGGAGUUUAUCAUG

Variants of: B1
Test: polymerase ribozyme fitness, log enrichment relative to wild type (log ratio); higher = more active; in vitro selection for triplet polymerase activity
How it was run: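 One round of in vitro selection, in triplicate, was applied to PCR-built, transcribed mutant libraries of each subunit of a heterodimeric triplet polymerase ribozyme. The steps were annealing with a biotinylated primer, partner subunit and triplets, incubation frozen at −7 °C, gel excision of extended constructs, streptavidin-bead capture and RT-PCR. Fitness is the logarithm, base 2, of genotype enrichment over wild-type enrichment from inverse-variance-weighted replicate averages of Illumina-sequenced inputs and outputs, keeping genotypes with ≥10 input reads and ≥1 read per output.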

Point of comparison: GGAUCUUCUCGAUCUAACAAAUAAGACAAAUCUGCCACAAAGCUUGAGAGCAUCAUCGGAUGCAGAGGCGGCAGCCUUCGGUGGCGCGAUAGCGCUAACGUUCUCAACUAUGACACGCAAAACGCGUGCUCCGUUGAAUGGAGUUUAUCAUG [A22U U55A C96U], “polymerase ribozyme fitness (log ratio)” value -0.172. Against it:
- GGAUCUUCUCGAUCUAACAAAUAAGACAAAUCUGCCACAAAGCUUGAGAGCAUCUUCGGAUGCAGAGGCGGCAGCCUUCGGUGGCGCCAUAGCGCCAACGUUCUCAACUAUGACACGCAAAACGCGUGCUCCGUUGAAUGGAGUUUCUCAUG [A22U G88C A147C] — lower, -4.19
- GGAUCUUCUCGAUCUAACAAAUAAGACAAAUCUGCCACAAAGCUUGAGAGCAUCUUCGAAUGCAGUGGCGGCAGCCUUCGGUGGCACGAUAGCGCCAACGUUCUCAACUAUGACACGCAGAACGCGUGCUCCGUUGAGUGGAGUUUAUCAUG [A22U G59A A66U G86A A120G A138G] — lower, ≤ -4.2
- GGAUCUUCUCGAUCUAACAAAUAAGACAAAUCUGCCACAAAGCUUGAGAGCAUCAUCGGAUGCAGAGGCGGCAGCCUUCGGUGGCGCGAUAGCGCCAACGUUCUCAACUAUGACACGCAAAACGCGUGCUCCGUUGAAUGGAGUUUAUCAUG [A22U U55A] — lower, -0.43
- GGAUCUUCUCGAUCUAACAAAUAAGACAAAUCUGCCACAAAGCUUGAGAGCAUCUUCGGAUGCAGAGGCGGCAGCCUUCGGUGGCGCGAUAGCCGAAACGUUCUCAACUAUGACACGCAAAUCGCGUGCUCCGUUGAAUGGAGUUUAUCAUG [A22U G94C C95G C96A A122U] — lower, ≤ -4.2
- GGAUCUUCUCGAUCUAACAAAUAAGACAAAUCUGCCACAAAGCUUGAGAGCAUCUUCGGAUGCAGAGGCGGCAGCCUUCGGUGGCGCUAUAGCGCCAACGUUCUCAACUAUGACAAGCUAAACGCGUGCUCCGUUGAAUGGAGUUUAUCAUG [A22U G88U C116A A119U] — lower, -4.1
- GGAUCUUCUCGAUCUAACAAAUAAGACAAAUCUGCCACAAAGCUUGAGAUCAUCUUCGGAUGCAGAGGCGGCAGCCUUCGGUGGCGCGAUAGCGCGAACGUUCUCAACUAUGACACGCAAAACGCGUGCUCCGUUGAAUGGAGUGUAUCAUG [A22U G50U C96G U145G] — lower, -0.544
- GGAUCUUCUCGAUCUAACAAAUAAGACAAAUCUGCCACAAAGCUUGAGAGCAUCUUCGGAUGCAGAGGCGGCAGCCUUCGGUGGCACGAUAGGGCCAAAGUUCUCAACUAUGACACGCAAAACGCGUGCUCCGUUGACUGGAGUUUAUCAUG [A22U G86A C93G C99A A138C] — lower, ≤ -4.2
- GGAUCUUCUCGAUCUAACAAAUAAGACAAAUCUGCCACAAAGCUUGAGAGCAUCUUCGAAUGCAGAGGCGGCAGCCUUCGGUGGCGCGAUAGCGCCAACGUUCUCAACUAUGACACGCAAAACGCGUGCUCCGUUGAAUGGAGUUUAUCAUG [A22U G59A] — lower, -0.47
- GGAUCUUCUCGAUCUAACAAAUAAGACAAAUCUGCCACAAAGCUUGAGAGCAUCUACGGAUGCAGAGGCGGCAGCCUUCGGUGGCGCGAUAGGGCCAGCGUUCUCAAAUAUGAGACGCAAAACGCGUGCUCCGUUGAAUGGAGUUUAUCAAG [A22U U56A C93G A98G C108A C114G U151A] — lower, ≤ -4.2
- GGAUCUUCUCGAUCUAACAAAUAAGACAAAUCUGCCACAAAGCUUGAGAGCAUCAUCGGAUGCAGAGGCGGCAGCCUUCGGUGGCGCGAUAGCGCCAACGUUCUCAACUAUGACCCGCAAAAUGCGUGCGCCGUUGAAUGGAGUUUAUCAUG [A22U U55A A115C C123U U130G] — lower, -2.84
- GGAUCUUCUCGAUCUAACAAAUAAGACAAAUCUGCCACAAAGCUUGAGAGCAUCAUCGGAUGCAGCGGCGGCAGCCAUCGGUGGCGAGAUAGCGCCAACGUUCUCAACUAUGACACGCAAAACGCGUGCUCCGUUGAAUGGAGUUUAUCAUG [A22U U55A A66C U77A C87A] — lower, ≤ -4.2
- GGAUCUUCUCGAUCUAACAAAUAAGACAAAUCUGCCACAAAGCUUAAGAGCAUCUUCGGAUGCAGAGGCGGCAGCCUUGUGUGGCGCGAUAACGCCAACGUUCUCAACUAUGACACGCAAAACGCGUGCUCCGUUGAAUGGAGUUUAUCCUG [A22U G46A C79G G80U G92A A150C] — lower, ≤ -4.2
- GGAUCUUCUCGAUCUAACAAAUAAGACAAAUCUGCCACAAAGCUUGAGAGCAUCUUCGGAUGCAGAGGCGGCAGCCUUCGGUGGCUCGAUAGCGCCAACGUUCUCAACUAUGACACGCAUAACGCGUGCUCCGUUGAAUGGAGUUUAUCAUG [A22U G86U A120U] — lower, -1.56
- GGAUCUUCUCGAUCUAACAAAUAAGACAAAUCUGCCACAAAGCUUAAGAGCAUCUUCGGAUGCAGAGGCGGCAGCCUUCGGUGGCGCGAUAGCGCCAACGUUCUCAACUAUGACGCGCAAAACGCGUGCUCCGUUGAAUGGAGUUUAUCAUG [A22U G46A A115G] — lower, -1.54
- GGAUCUUCUCGAUCUAACAAAUAAGACAAAUCUGCCACAAAGCUUGAGAGCAUCUUCGGAUGCAGAGGCGGCAGCCUUCGGUGGCGCGAUAGCGCCAACGUUCUCAACUAUGACACGCAAAACGCGUGCUCCGUUGAAUGAAGUUUAUCAUG [A22U G141A] — higher, 2.05
- GGAUCUUCUCGAUCUAACAAAUAAGACAAAUCUGCCACAAAGCUUGAGAGCAUCUUCGGAUGCAGAGGCGGCAGCCUUCGGUCGCGCGAUAGCGCCAACGUUCUCAACUAUGACACGCAAAACGCGUGCUCCGUUGAAUGGAGUUUAUCAUG [A22U G83C] — lower, -1.73
- GGAUCUUCUCGAUCUAACAAAUAAGACAAAUCUGCCACAAAGCUUGAGAGCAUCUUCCGAUGCAGAGGCGGCAGCCUUCGGUGGCGCGAUAUCGCCAACGUUCUCAACUAUGACACGCAAAACCCGUGCUCCGUUGAAUGGAGUUUAUCAUG [A22U G58C G92U G124C] — lower, -0.925
- GGAUCUUCUCGAUCUAACAAAUAAGACAAACCUGCCACAAAGCUUGAGAGCAUCUUCGGAUGCAGAGGCGGCAGCCUUCGCUGGCGCGCUAGCGCCAACGUUCUCAACUAUGACACGCAAAACGCGUGCUCCGUUGAAUGGAGUUUAUCAUG [A22U U31C G81C A89C] — higher, 1.01
